Source: patent publication US6420345 (dated 2002)

B1: human p16 (other)
chain: MEPAAGSSMEPSADWLATAAARGRVEEVRALLEAGALPNAPNSYGRRPIQVMMMGSARVAELLLLHGAEPNCADPATLTRPVHDAAREGFLDTLVVLHRAGARLDVRDAWGRLPVDLAEELGHRDVARYLRAAAGGTRGSNHARIDAAEGPSDIPD
B2: W9 (other)
chain: MGYPYDVPDYAKPSACRNLFGPVDHEELTRDLEKHCRDMEEASQRKWNFDFQNHKPLEGKYEWQEVEKGSLPEFYYRPPRVEDPAAGSSMEPSADWLATAAARGRVEEVRALLEAGALPNAPNSYGRRPIQVMMMGSARVAELLLLHGAEPNCADPATLTRPVHDAAREGFLDTLVVLHRAGARLDVRDAWGRLPVDLAEELGHRDVARYLRAAAGGTRGSNHARIDAAEGPSDIPD
B3: W10 (other)
chain: MGYPYDVPDYAKPSACRNLFGPVDHEELTRDLEKHCRDMEEASQRKWNFDFQNHKPLEGKYEWQEVEKGSLPEFYYRPPRGGGGSGGGGSGGGGSVEDPAAGSSMEPSADWLATAAARGRVEEVRALLEAGALPNAPNSYGRRPIQVMMMGSARVAELLLLHGAEPNCADPATLTRPVHDAAREGFLDTLVVLHRAGARLDVRDAWGRLPVDLAEELGHRDVARYLRAAAGGTRGSNHARIDAAEGPSDIPD

biological target: CDC2/cyclin B complex (UniProt P06493 1-297; P14635 1-433); assay: in vitro kinase assay
Sequence (P06493 whole entry, chain 1 of 2): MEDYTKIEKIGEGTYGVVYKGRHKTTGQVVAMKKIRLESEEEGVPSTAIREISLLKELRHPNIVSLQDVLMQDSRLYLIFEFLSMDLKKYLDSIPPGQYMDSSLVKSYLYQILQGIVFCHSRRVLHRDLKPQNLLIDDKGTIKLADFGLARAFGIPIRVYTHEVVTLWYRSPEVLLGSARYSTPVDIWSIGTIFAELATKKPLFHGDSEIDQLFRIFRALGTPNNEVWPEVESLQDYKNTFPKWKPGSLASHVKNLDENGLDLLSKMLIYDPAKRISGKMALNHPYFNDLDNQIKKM
Sequence (P14635 whole entry, chain 2 of 2): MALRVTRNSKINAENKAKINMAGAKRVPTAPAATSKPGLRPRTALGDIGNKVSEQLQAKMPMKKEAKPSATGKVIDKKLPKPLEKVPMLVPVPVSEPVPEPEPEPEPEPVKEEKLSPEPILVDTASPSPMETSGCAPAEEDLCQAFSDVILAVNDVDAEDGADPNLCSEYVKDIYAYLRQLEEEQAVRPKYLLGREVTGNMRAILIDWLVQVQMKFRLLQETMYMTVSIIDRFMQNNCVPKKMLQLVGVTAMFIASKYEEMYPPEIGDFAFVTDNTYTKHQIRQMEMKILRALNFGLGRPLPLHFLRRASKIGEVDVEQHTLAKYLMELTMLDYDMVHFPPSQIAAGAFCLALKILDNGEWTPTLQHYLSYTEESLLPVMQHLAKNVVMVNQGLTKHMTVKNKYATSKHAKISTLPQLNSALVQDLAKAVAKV

First: B1
Second: B2
The IC50 of the first is higher: > 1000 nM for the first, 18 nM for the second.

For B3, the IC50 was 17 nM.

biological target: CDK4/cyclin D1 complex (UniProt P11802 1-303; P24385 1-295); assay: in vitro kinase assay
Sequence (P11802 whole entry, chain 1 of 2): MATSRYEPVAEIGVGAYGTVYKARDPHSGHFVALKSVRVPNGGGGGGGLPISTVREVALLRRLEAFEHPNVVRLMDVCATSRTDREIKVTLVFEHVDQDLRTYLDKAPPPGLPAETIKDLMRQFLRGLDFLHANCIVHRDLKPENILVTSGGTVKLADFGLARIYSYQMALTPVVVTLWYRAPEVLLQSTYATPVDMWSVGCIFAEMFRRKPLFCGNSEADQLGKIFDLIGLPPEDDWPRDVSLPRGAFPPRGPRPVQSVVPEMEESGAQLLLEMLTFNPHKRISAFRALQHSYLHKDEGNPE
Sequence (P24385 whole entry, chain 2 of 2): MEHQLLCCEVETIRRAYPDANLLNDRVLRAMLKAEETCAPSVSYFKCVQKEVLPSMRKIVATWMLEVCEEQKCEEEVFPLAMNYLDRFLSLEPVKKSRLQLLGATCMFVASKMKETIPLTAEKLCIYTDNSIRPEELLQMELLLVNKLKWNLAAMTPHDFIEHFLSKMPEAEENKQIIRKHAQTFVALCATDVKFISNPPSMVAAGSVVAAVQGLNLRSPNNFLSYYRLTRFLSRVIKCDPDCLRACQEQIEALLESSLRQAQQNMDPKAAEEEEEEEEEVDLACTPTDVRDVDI

Going from B1 to B2, the IC50 falls from 100 nM to 47 nM (2.1-fold).

B3 was tested, and the IC50 was 38 nM.

biological target: CDK2/cyclin E complex (UniProt P24941 1-298; P24864 16-410); assay: in vitro kinase assay

Compared with B1, B2 is lower in IC50: > 1000 nM for the first, 3.5 nM for the second. The second is the more potent here.

Binder B3 has an IC50 of 3 nM.
